In US20160137708A1 (Amgen, published 2016):
Positions count from the first letter of the chain named. Like-named read-outs stand apart in the source and are kept apart here. Each block holds one binder with its values, some of them ahead of it.

Experiments:
Assay in all cases: cell-based or functional assay
[1] = molecular target: T1, human IL-1Rrp2 (IL-1R-related protein 2) (human, UniProt Q9HB29 20-575)
T1 sequence (looked up): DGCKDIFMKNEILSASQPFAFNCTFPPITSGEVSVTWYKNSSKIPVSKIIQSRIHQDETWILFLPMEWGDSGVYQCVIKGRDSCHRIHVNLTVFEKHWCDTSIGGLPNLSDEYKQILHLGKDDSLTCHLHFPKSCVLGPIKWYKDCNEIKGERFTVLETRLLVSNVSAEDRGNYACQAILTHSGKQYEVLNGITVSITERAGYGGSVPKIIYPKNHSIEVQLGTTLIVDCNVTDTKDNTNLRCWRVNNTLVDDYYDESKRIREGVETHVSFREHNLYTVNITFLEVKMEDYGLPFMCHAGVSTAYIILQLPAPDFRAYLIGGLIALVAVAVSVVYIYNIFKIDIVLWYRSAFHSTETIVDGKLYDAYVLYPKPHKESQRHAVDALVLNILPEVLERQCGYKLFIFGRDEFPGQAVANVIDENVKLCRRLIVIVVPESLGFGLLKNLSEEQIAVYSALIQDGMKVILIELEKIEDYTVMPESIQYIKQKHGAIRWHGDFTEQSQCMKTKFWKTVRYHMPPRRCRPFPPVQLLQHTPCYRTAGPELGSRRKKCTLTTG

[2] = molecular target: T1, human IL-1Rrp2 (IL-1R-related protein 2); remark: listed apart in the source
[3] = molecular target: T1, human IL-1Rrp2 (IL-1R-related protein 2); remark: listed apart in the source

EC50, IL-8 ELISA of supernatants of Jurkat T-REx cells expressing human IL-1Rrp2 [1]: 60 ng/mL
EC50, luciferase reporter assay in IL-1Rrp2 transfected Jurkat cells [2]: 2.8 ng/mL
B1: HuIL-1F6I7/FpH (ligand)
chain: MIDTPQRGSIQDINHRVWVLQDQTLIAVPRKDRMSPVTIALISCRHVETLEKDRGNPIYLGLNGLNLCLMCAKVGDQPTLQLKEKDIMDLYNQPEPVKSFLFYHSQSGRNSTFESVAFPGWFIAVSSEGGCPLILTQELGKANTTDFGLTMLFDYKDDDDKHHHHHH

EC50, IL-8 ELISA of supernatants of Jurkat T-REx cells expressing human IL-1Rrp2 [3]: 10500 ng/mL
EC50, luciferase reporter assay in IL-1Rrp2 transfected Jurkat cells [3]: > 193 ng/mL
B2: HuIL-1F8WT (untagged full length wild type human IL-1F8) (ligand)
chain: MNPQREAAPKSYAIRDSRQMVWVLSGNSLIAAPLSRSIKPVTLHLIACRDTEFSDKEKGNMVYLGIKGKDLCLFCAEIQGKPTLQLKEKNIMDLYVEKKAQKPFLFFHNKEGSTSVFQSVSYPGWFIATSTTSGQPIFLTKERGITNNTNFYLDSVE

EC50, luciferase reporter assay in IL-1Rrp2 transfected Jurkat cells [3]: > 258 ng/mL
B3: HuIL-1F8WT/FpH (ligand)
chain: MNPQREAAPKSYAIRDSRQMVWVLSGNSLIAAPLSRSIKPVTLHLIACRDTEFSDKEKGNMVYLGIKGKDLCLFCAEIQGKPTLQLKEKNIMDLYVEKKAQKPFLFFHNKEGSTSVFQSVSYPGWFIATSTTSGQPIFLTKERGITNNTNFYLDSVEDYKDDDDKHHHHHH

EC50, IL-8 ELISA of supernatants of Jurkat T-REx cells expressing human IL-1Rrp2 [3]: 12900 ng/mL
EC50, luciferase reporter assay in IL-1Rrp2 transfected Jurkat cells [3]: > 212 ng/mL
B4: HuIL-1F6 WT (untagged full length wild type human IL-1F6) (ligand)
chain: MEKALKIDTPQQGSIQDINHRVWVLQDQTLIAVPRKDRMSPVTIALISCRHVETLEKDRGNPIYLGLNGLNLCLMCAKVGDQPTLQLKEKDIMDLYNQPEPVKSFLFYHSQSGRNSTFESVAFPGWFIAVSSEGGCPLILTQELGKANTTDFGLTMLF

EC50, IL-8 ELISA of supernatants of Jurkat T-REx cells expressing human IL-1Rrp2 [1]: 17 ng/mL
EC50, luciferase reporter assay in IL-1Rrp2 transfected Jurkat cells [2]: 1 ng/mL
B5: HuIL-1F9S18/FpH (ligand)
chain: SMCKPITGTINDLNQQVWTLQGQNLVAVPRSDSVTPVTVAVITCKYPEALEQGRGDPIYLGIQNPEMCLYCEKVGEQPTLQLKEQKIMDLYGQPEPVKPFLFYRAKTGRTSTLESVAFPDWFIASSKRDQPIILTSELGKSYNTAFELNINDDYKDDDDKHHHHHH

EC50, luciferase reporter assay in IL-1Rrp2 transfected Jurkat cells [2]: 1.1 ng/mL
B6: HuIL-1F9M19/FpH (ligand)
chain: B5 chain with S1M

EC50, IL-8 ELISA of supernatants of Jurkat T-REx cells expressing human IL-1Rrp2 [1]: 0.129 ng/mL
B7: HuIL-1F8R5 (ligand)
chain: REAAPKSYAIRDSRQMVWVLSGNSLIAAPLSRSIKPVTLHLIACRDTEFSDKEKGNMVYLGIKGKDLCLFCAEIQGKPTLQLKEKNIMDLYVEKKAQKPFLFFHNKEGSTSVFQSVSYPGWFIATSTTSGQPIFLTKERGITNNTNFYLDSVE

EC50, IL-8 ELISA of supernatants of Jurkat T-REx cells expressing human IL-1Rrp2 [1]: 0.164 ng/mL
B8: HuIL-1F6K6 (ligand)
chain: KIDTPQQGSIQDINHRVWVLQDQTLIAVPRKDRMSPVTIALISCRHVETLEKDRGNPIYLGLNGLNLCLMCAKVGDQPTLQLKEKDIMDLYNQPEPVKSFLFYHSQSGRNSTFESVAFPGWFIAVSSEGGCPLILTQELGKANTTDFGLTMLF

EC50, luciferase reporter assay in IL-1Rrp2 transfected Jurkat cells [3]: > 332 ng/mL
B9: HuIL-1F9WT/FpH (ligand)
chain: MRGTPGDADGGGRAVYQSMCKPITGTINDLNQQVWTLQGQNLVAVPRSDSVTPVTVAVITCKYPEALEQGRGDPIYLGIQNPEMCLYCEKVGEQPTLQLKEQKIMDLYGQPEPVKPFLFYRAKTGRTSTLESVAFPDWFIASSKRDQPIILTSELGKSYNTAFELNINDDYKDDDDKHHHHHH

EC50, IL-8 ELISA of supernatants of Jurkat T-REx cells expressing human IL-1Rrp2 [1]: 1 ng/mL
B10: HuIL-1F9S18 (ligand)
chain: SMCKPITGTINDLNQQVWTLQGQNLVAVPRSDSVTPVTVAVITCKYPEALEQGRGDPIYLGIQNPEMCLYCEKVGEQPTLQLKEQKIMDLYGQPEPVKPFLFYRAKTGRTSTLESVAFPDWFIASSKRDQPIILTSELGKSYNTAFELNIND

EC50, luciferase reporter assay in IL-1Rrp2 transfected Jurkat cells [3]: > 136 ng/mL
B11: HuIL-1F6WT/FpH (ligand)
chain: MEKALKIDTPQQGSIQDINHRVWVLQDQTLIAVPRKDRMSPVTIALISCRHVETLEKDRGNPIYLGLNGLNLCLMCAKVGDQPTLQLKEKDIMDLYNQPEPVKSFLFYHSQSGRNSTFESVAFPGWFIAVSSEGGCPLILTQELGKANTTDFGLTMLFDYKDDDDKHHHHHH

EC50, IL-8 ELISA of supernatants of Jurkat T-REx cells expressing human IL-1Rrp2 [1]: 2 ng/mL
EC50, luciferase reporter assay in IL-1Rrp2 transfected Jurkat cells [2]: 0.2 ng/mL
B12: HuIL-1F8E6/FpH (ligand)
chain: MEAAPKSYAIRDSRQMVWVLSGNSLIAAPLSRSIKPVTLHLIACRDTEFSDKEKGNMVYLGIKGKDLCLFCAEIQGKPTLQLKEKNIMDLYVEKKAQKPFLFFHNKEGSTSVFQSVSYPGWFIATSTTSGQPIFLTKERGITNNTNFYLDSVEDYKDDDDKHHHHHH

EC50, IL-8 ELISA of supernatants of Jurkat T-REx cells expressing human IL-1Rrp2 [3]: 4070 ng/mL
EC50, luciferase reporter assay in IL-1Rrp2 transfected Jurkat cells [3]: > 544 ng/mL
B13: HuIL-1F9WT (untagged full length wild type human IL-1F9) (ligand)
chain: MRGTPGDADGGGRAVYQSMCKPITGTINDLNQQVWTLQGQNLVAVPRSDSVTPVTVAVITCKYPEALEQGRGDPIYLGIQNPEMCLYCEKVGEQPTLQLKEQKIMDLYGQPEPVKPFLFYRAKTGRTSTLESVAFPDWFIASSKRDQPIILTSELGKSYNTAFELNIND
